In assay [1] the test system is renal ischemia/reperfusion (IR) injury. The experiment in a line: Histological detection of necrosis, apoptosis, neutrophil and macrophage infiltration after renal IR. The format is in vivo, mice. The method, then:
Adult male renalase deficient (KO) mice (Wu et al., 2011, Kidney Int 79: 853-860) on a C57BL/6 background were subjected to renal ischemia/reperfusion (IR) as described (Kim et al., 2009, Kidney Int 75: 809-823; Kim et al., 2010, Am J Physiol Renal Physiol 299(2):[…]-58). Renalase KO or wild type (WT) mice (C57BL/6 from Harlan Labs, Indianapolis, Ind.) were subjected to sham-operation or to 20 min. (moderate) or 30 min. (severe) renal ischemia and 24 hr. reperfusion. To test the renal protective effects of recombinant human renalase, mice were pretreated with saline (vehicle) or with recombinant renalase (0.5, 1.5 or 4.5 mg/kg, s.c.) 10 min. prior to 30 min. renal ischemia. It was also tested whether renalase treatment after completion of renal ischemia also provides renal protection. Separate cohorts of mice were treated with saline or with renalase (1.5 mg/kg, s.c.) 30 min. or 60 min. after reperfusion of the ischemic kidney. To test whether blocking alpha receptors would mimic the renal protective effects of human recombinant renalase administration, phentolamine (an alpha receptor antagonist, 5 mg/kg, i.p.) was given in some mice 15 min. before renal ischemia. An established grading scale of necrotic injury (0-4, Renal Injury Score) to the proximal tubules was used for the histopathological assessment of IR-induced damage as outlined by Jablonski et al. (1983, Transplantation 35: 198-204) and as described in previous studies (Lee et al., 2004, J Am Soc Nephrol 15: 102-111; Lee et al., 2004, Am J Physiol Renal Physiol 286: […]-[…]). Apoptosis was detected after renal IR with TUNEL staining as described (Park et al., 2011, Lab Invest 91: 63-84) using a commercially available in situ cell death detection kit (Roche, Indianapolis, Ind.) according to the instructions provided by the manufacturer. Kidney neutrophil and macrophage infiltrations were assessed with immunohistochemistry 24 hr. after IR as described previously (Park et al., 2011, Lab Invest 91: 63-84). Neutrophils and macrophages infiltrating the kidney were quantified in 5-7 randomly chosen 200× (neutrophils) or 400× (macrophages) microscope images fields in the corticomedullary junction and results were expressed as neutrophils counted per 200-400× field.

For assay [2] the following is noted: cited from earlier work.
The test system of the next assay is systemic blood pressure. Particulars: Xu et al., 2005, cited from earlier work.
Assay [3] has as its system PI3K/AKT and MAPK pathways. The assay can be described thus: AKT and MAPK signaling and Bcl-2 expression by western blot. The format is cell-based, human. The method, then:
FIG. 12, comprising FIGS. 12A through 12E, is a set of images and graphs showing renalase upregulates Bcl-2, activates PI3K/AKT, ERK, p38, and inhibits JNK. Western blot analysis; P− indicates phosphorylated, activated proteins; signals normalized to GAPDH loading control, then changes in protein phosphorylation (increase=activation, decrease=inhibition) from time 0 are calculated. FIG. 12A: HK-2 and HUVEC cells incubated with renalase for 24 hrs; FIG. 12B: Western blot of time course of AKT and MAPK signaling by renalase, HK-2 cells incubated with renalase for indicated time; changes over baseline in 4c-d are significant (p<0.05); FIG. 12C: Activation of AKT(T308), AKT(5473) and ERK; FIG. 12D: Inhibition of JNK; FIG. 12E: Marked and sustained (60 min) upregulation of p38 by renalase in the presence of cisplatin, western blot for time course, REN=renalase, CP=cisplatin.
MAPK signaling by renalase and renalase peptides. Western blot analysis; ERK: Extracellular signal-Regulated Kinase 1 and 2; JNK: c-Jun N-terminal Kinases; AKT: protein kinase B; p-indicates phosphorylated, activated proteins; representative blot, n=3 (FIG. 20A). Renalase activates AKT (FIG. 20B). Western blot analysis; P− indicates phosphorylated, activated proteins Representative blot, n=3 (FIG. 20B, left panel). Signals normalized to GAPDH loading control; n=3, change over baseline statistically significant (P<0.05) from 1-60 min for ERK, p38 and AKT (T308), and at 30 min only for AKT (S473) (FIG. 20B, right panel). ERK or AKT inhibition abrogates protective effect of RP-H220 (FIG. 20C). Plasma creatinine levels from mice subjected to sham-surgery or to renal ischemia and reperfusion (IR); Renalase WT mice were subjected to sham-surgery or to 30 min renal IR. For mice subjected to renal IR, RP-H220 or vehicle (saline) was injected 10 min prior to renal ischemia. Some animals were pretreated with either the ERK inhibitor PD98059 or the PI3K/AKT inhibitor wortmanin. (N=6-8 per group). *: P<0.05 vs. vehicle-treated mice subjected to sham-surgery; #: P<0.05 vs. vehicle-treated WT mice subjected to renal IR (FIG. 20C).
A general note: A western blot detects proteins with antibodies after separation by electrophoresis.

Setting [4] is: treated before renal ischemia, 30 min. ischemia, 24 hr. reperfusion.

B1: recombinant renalase: human recombinant renalase, 38 kDa FAD-dependent amine oxidase; renalase polypeptide SEQ ID NO: 9 or 10 (protein, UniProt Q5VYX0 18-342, looked up)
Renalase: ALLRRQTSGPLYLAVWDKAEDSGGRMTTACSPHNPQCTADLGAQYITCTPHYAKKHQRFYDELLAYGVLRPLSSPIEGMVMKEGDCNFVAPQGISSIIKHYLKESGAEVYFRHRVTQINLRDDKWEVSKQTGSPEQFDLIVLTMPVPEILQLQGDITTLISECQRQQLEAVSYSSRYALGLFYEAGTKIDVPWAGQYITSNPCIRFVSIDNKKRNIESSEIGPSLVIHTTVPFGVTYLEHSIEDVQELVFQQLENILPGLPQPIATKCQKWRHSQVTNAAANCPGQMTLHHKPFLACGGDGFTQSNFDGCITSALCVLEALKNYI
As to B1, in assay [1] (1.5 mg/kg s.c. 10 min. before renal ischemia), the “apoptotic TUNEL-positive cells in the kidney” value is “significantly reduced the number of apoptotic TUNEL-positive cells”. In assay [1] (1.5 mg/kg, renalase WT mice vs. vehicle), the “renal histological injury (hematoxylin and eosin)” value is “dramatically reduced injury”. The “Jablonski scale renal injury score (0-4)” value in assay [1] (renalase WT mice, 30 min. renal IR, 24 hr. after IR, vs. vehicle) is “significantly lower renal injury scores”. Further, in assay [1] (setting [4]), the “macrophages infiltrating the kidney after IR (F4/80)” value was “significantly reduced number of macrophages” and the “neutrophils infiltrating the kidney after IR” value was “significantly reduced number of neutrophils”. Moreover, the “increase in rate of epinephrine metabolism in the presence of NADH” value in assay [2] is given as 18 fold. Moreover, the “reduction of mean arterial pressure” value in the assay with systemic blood pressure (4 mg/kg dose) is listed as ~40%. Also, in the assay with systemic blood pressure, the “blood pressure when injected into rodents” value was “marked decrease in blood pressure”. In addition, the Bcl-2 expression entry in assay [3] (HK-2 and human vein endothelial cells (HUVEC) at 24 hrs) is “upregulates Bcl-2 expression”. Moreover, in assay [3] (HK-2 cells), the “decrease in JNK-p54/p46 phosphorylation” value is ~95%. Also, the “AKT and MAPK signaling (phosphorylation of ERK, p38, AKT)” value in assay [3] (HK-2 cells in culture) is “rapid and transient increase in phosphorylated”. Also, in assay [3] (at 15 min, HK-2 cells), the “activation of AKT” value is ~45 fold and the “activation of ERK” value was ~35 fold. For the same molecule, in assay [3] (cells treated with cisplatin), the “activation of AKT and p38” value was “marked and sustained activation”.

The values above are taken from patent US10066025B2, “Compositions and methods for detecting, treating and preventing diseases and disorders” (YALE UNIVERSITY, priority 2012, dated 2018).
